The values that follow come from patent publication US20050196403A1 (published 2005).

Several values for one entry are separate records, joined by “and”; a condition that tells them apart may be missing. Identical values can stand only once. Non-standard residues stand in square brackets, D forms with d. No end group written: not given here. Abu = CC[C@H](N)C(=O)O

Assay [1] addresses HLA-B*0702 (Human). The experiment in a line: competition vs 125I probe, purified HLA.
For a further assay, the target named is HLA-B*5301 (Human). The assay is described as follows: competition vs 125I probe, purified HLA.
The target of the next assay is HLA-B*3501 (Human). The assay is described as follows: competition vs 125I probe, purified HLA.
A further assay concerns the target HLA-B*5101 (Human). The assay is described as follows: competition vs 125I probe, purified HLA.
Assay [2] deals with HLA-B*0702 (Human).
The next assay has as its target HLA-A*6801 (human). The assay is described as follows: competition with 125I probe peptide, purified HLA class I.
The target in the next assay is HLA-A*0301 (human). The description is as above.
A further assay addresses HLA-A*3101 (human). The description is as above.
A further assay has as its target HLA-A*1101 (human). Described as above.
The target of a further assay is HLA-B*5401 (Human). The experiment in a line: competition vs 125I probe, purified HLA.
The target of a further assay is HLA-A*0101 (human). The assay is described as follows: competition with 125I probe peptide, purified HLA class I.
Assay [3] addresses HLA-A*0206 (Human). The experiment in a line: competition vs 125I probe, purified HLA.
For the next assay, the target named is HLA-A*0201 (human). The assay is described as follows: competition with 125I probe peptide, purified HLA class I.
The target in a further assay is HLA-A*0203 (Human). The assay is described as follows: competition vs 125I probe, purified HLA.
Assay [4] deals with HLA-A*0206 (human). The assay is described as follows: competition with 125I probe peptide, purified HLA class I.

B1: 48.0055 FPALNKMF (p53.127.F1) (peptide)
peptide: FPALNKMF
B1: the IC50 with HLA-B*0702 [1] is 0.025 nM; with HLA-B*5301 it was 6200 nM; in the assay with HLA-B*3501, 3000 nM.

B2: 48.0196 FPPGSTKRAL (p53) (peptide)
peptide: FPPGSTKRAL
As for B2, the figures for the IC50 with HLA-B*5101 and with HLA-B*0702 [1] were 6110 nM and 0.79 nM, respectively.

B3: p53 peptide TPAAPAPA (position 81, 8 amino acids) (peptide)
peptide: TPAAPAPA
As to B3, in the assay with HLA-B*0702 [2], the “binding affinity ratio (IC50 of standard peptide / IC50 of test peptide)” value was 0.0041 ratio.

B4: 48.0127 FPQPKKKPI (p53) (peptide)
peptide: FPQPKKKPI
Take B4: the IC50 with HLA-B*0702 [1] turned out to be 0.61 nM.

B5: 48.0128 FPQPKKKPL (p53) (peptide)
peptide: FPQPKKKPL
Molecule B5 showed an IC50 in the assay with HLA-B*0702 [1] of 2.3 nM.

B6: p53 peptide MPEAAPPV (position 66, 8 amino acids) (peptide)
peptide: MPEAAPPV
Regarding B6, the “binding affinity ratio (IC50 of standard peptide / IC50 of test peptide)” value with HLA-B*0702 [2] amounted to 0.0028 ratio.

B7: 1371.27 SVBMGGMNRR p53.240.V2B3 (peptide)
peptide: SV[Abu]MGGMNRR
As for B7, the IC50 in the assay with HLA-A*6801 was 11.4 nM; with HLA-A*0301, 1000 nM; in the assay with HLA-A*3101, 621 nM; with HLA-A*1101 it was 25 nM.

B8: p53 peptide LPENNVLSPL (position 26, 10 amino acids) (peptide)
peptide: LPENNVLSPL
Regarding B8, the “binding affinity ratio (IC50 of standard peptide / IC50 of test peptide)” value with HLA-B*0702 [2] stood at 0.007 ratio.

B9: 1371.17 BVYSPALNR p53.124.B1V2R9 (peptide)
peptide: BVYSPALNR
modifications: B at position 1 is alpha-amino butyric acid (in place of cysteine)
Turning to B9, the IC50 with HLA-A*6801 was 14.8 nM; with HLA-A*0301, 25 nM; with HLA-A*1101, 8.3 nM.

B10: 48.0234 FPALNKMFCQL (p53.127.F1) (peptide)
peptide: FPALNKMFCQL
Consider B10, for which the IC50 with HLA-B*5401 is 500 nM; with HLA-B*5101, 5500 nM; in the assay with HLA-B*0702 [1], 0.052 nM.

B11: 57.0126 GTDKSVTCTY p53.117.D3 (peptide)
peptide: GTDKSVTCTY
The molecule B11 gave an IC50 with HLA-A*0101 of 42.4 nM.

B12: p53 peptide LPSQAMDDL (position 35, 9 amino acids) (peptide)
peptide: LPSQAMDDL
For the molecule B12, the “binding affinity ratio (IC50 of standard peptide / IC50 of test peptide)” value in the assay with HLA-B*0702 [2] was determined as 0.0038 ratio.

B13: 1371.31 RVBABPGRDRK p53.273.B3B5K11 (peptide)
peptide: RV[Abu]A[Abu]PGRDRK
Turning to B13, the IC50 came out at 2500 nM with HLA-A*6801 and 200 nM with HLA-A*1101.

B14: 48.0123 FPGTRVRAI (p53.152.F1) (peptide)
peptide: FPGTRVRAI
With B14, the results for the IC50 with HLA-B*5101 and in the assay with HLA-B*0702 [1] were 663 nM and 1.1 nM, respectively.

B15: p53.229 CTTIHYNYM (peptide)
peptide: CTTIHYNYM
B15: in the assay with HLA-A*0206 [3], the IC50 is 561 nM.

B16: LLGRDSFEV mp53.261 (peptide)
peptide: LLGRDSFEV
B16: the IC50 with HLA-A*0201 was 41.7 nM and 27.8 nM.

B17: p53.193 HLIRVEGNLRV (peptide)
peptide: HLIRVEGNLRV
For the molecule B17, the IC50 with HLA-A*0203 stood at 83 nM.

B18: p53 peptide SPLPSQAM (position 33, 8 amino acids) (peptide)
peptide: SPLPSQAM
With B18, the “binding affinity ratio (IC50 of standard peptide / IC50 of test peptide)” value with HLA-B*0702 [2] was 0.0044 ratio.

B19: 1371.18 KVFBQLAK p53.132.V2B4 (peptide)
peptide: KVF[Abu]QLAK
On to B19, for which the values for the IC50 in the assay with HLA-A*0301 and in the assay with HLA-A*3101 were 846 nM and 7500 nM, respectively.

B20: 1329.04 CTTIHYNYM p53.229 (peptide)
peptide: CTTIHYNYM
In the assay with HLA-A*0206 [4], B20 displayed an IC50 of 561 nM.

B21: p53 peptide KPLDGEYFTL (position 321, 10 amino acids) (peptide)
peptide: KPLDGEYFTL
With B21, the “binding affinity ratio (IC50 of standard peptide / IC50 of test peptide)” value with HLA-B*0702 [2] was determined as 0.0055 ratio.
